47 variants from the Human Domainome abundance scans (Beltran et al. 2025) can be followed below.

± gives the uncertainty stated by the source.

The chains are these.
B1: Zinc finger homeobox protein 4, residues 2562 to 2617; numbered along this chain, Q86UP3 (parent)
chain: RLRTTITPEQLEILYEKYLLDSNPTRKMLDHIAREVGLKKRVVQVWFQNTRARERK

The variants in this data set derive from B1. Nature of the data set: abundance fitness (aPCA) (normalised: wild type 0, dead -1); higher = more abundant; growth selection in yeast, the domain comes from the species named. As to conditions: Homo sapiens.
As for RLRTTITPEQLEILYEKYLLDSNPTRKMLDHIAREVGLKKHVVQVWFQNTRARERK [R41H], the abundance fitness was determined as 0.163 ± 0.069.
Consider RLRTTITPEQLEILYEKYLLDSNPTRKMLDHIAREVGLKKSVVQVWFQNTRARERK [R41S], for which the abundance fitness was determined as 0.306 ± 0.067.
As to RLRTTITPEQLEILYEKYLLDSNPTRKMLDHIAREVGLKKCVVQVWFQNTRARERK [R41C], the abundance fitness came to 0.068 ± 0.075.
As to RLRTTITPEQLEILYEKYLLDSNPTRKMLDHIAREVGLKKWVVQVWFQNTRARERK [R41W], the abundance fitness was -0.102 ± 0.071.
Under RLRTTITPEQLEILYEKYLLDSNPTRKMLDHIAREVGLKKDVVQVWFQNTRARERK [R41D] stands 0.001 ± 0.19.
In the case of RLRTTITPEQLEILYEKYLLDSNPTRKMLDHIAREVGLKKFVVQVWFQNTRARERK [R41F], the abundance fitness was -0.044 ± 0.089.
As for RLRTTITPEQLEILYEKYLLDSNPTRKMLDHIAREVGLKKAVVQVWFQNTRARERK [R41A], the abundance fitness was 0.257 ± 0.062.
Under RLRTTITPEQLEILYEKYLLDSNPTRKMLDHIAREVGLKKPVVQVWFQNTRARERK [R41P] stands 0.246 ± 0.093.
In the case of RLRTTITPEQLEILYEKYLLDSNPTRKMLDHIAREVGLKKYVVQVWFQNTRARERK [R41Y], the abundance fitness stood at 0.037 ± 0.079.
Regarding RLRTTITPEQLEILYEKYLLDSNPTRKMLDHIAREVGLKKNVVQVWFQNTRARERK [R41N], the abundance fitness worked out at 0.248 ± 0.1.
As for RLRTTITPEQLEILYEKYLLDSNPTRKMLDHIAREVGLKKEVVQVWFQNTRARERK [R41E], the abundance fitness amounted to 0.517 ± 0.098.
Turning to RLRTTITPEQLEILYEKYLLDSNPTRKMLDHIAREVGLKKQVVQVWFQNTRARERK [R41Q], the abundance fitness is 0.476 ± 0.11.
RLRTTITPEQLEILYEKYLLDSNPTRKMLDHIAREVGLKKTVVQVWFQNTRARERK [R41T]: the abundance fitness came out at 0.213 ± 0.088.
As to RLRTTITPEQLEILYEKYLLDSNPTRKMLDHIAREVGLKKIVVQVWFQNTRARERK [R41I], the abundance fitness is -0.038 ± 0.16.
As for RLRTTITPEQLEILYEKYLLDSNPTRKMLDHIAREVGLKKGVVQVWFQNTRARERK [R41G], the abundance fitness was determined as 0.264 ± 0.053.
As for RLRTTITPEQLEILYEKYLLDSNPTRKMLDHIAREVGLKKLVVQVWFQNTRARERK [R41L], the abundance fitness was determined as 0.115 ± 0.08.
On to RLRTTITPEQLEILYEKYLLDSNPTRKMLDHIAREVGLKKVVVQVWFQNTRARERK [R41V], for which the abundance fitness was found to be 0.013 ± 0.086.
Consider RLRTTITPEQLEILYEKYLLDSNPTRKMLDHIAREVRLKKRVVQVWFQNTRARERK [G37R], for which the abundance fitness is -0.369 ± 0.081.
For the variant RLRTTITPEQLEILYEKYLLDSNPTRKMLDHIAREVPLKKRVVQVWFQNTRARERK [G37P], the abundance fitness is -0.812 ± 0.23.
In the case of RLRTTITPEQLEILYEKYLLDSNPTRKMLDHIAREVKLKKRVVQVWFQNTRARERK [G37K], the abundance fitness was -0.169 ± 0.06.
Turning to RLRTTITPEQLEILYEKYLLDSNPTRKMLDHIAREVILKKRVVQVWFQNTRARERK [G37I], the abundance fitness is -0.828 ± 0.27.
As to RLRTTITPEQLEILYEKYLLDSNPTRKMLDHIAREVQLKKRVVQVWFQNTRARERK [G37Q], the abundance fitness was -0.051 ± 0.086.
Under RLRTTITPEQLEILYEKYLLDSNPTRKMLDHIAREVYLKKRVVQVWFQNTRARERK [G37Y] stands -0.962 ± 0.24.
Consider RLRTTITPEQLEILYEKYLLDSNPTRKMLDHIAREVHLKKRVVQVWFQNTRARERK [G37H], for which the abundance fitness is -0.471 ± 0.2.
As for RLRTTITPEQLEILYEKYLLDSNPTRKMLDHIAREVLLKKRVVQVWFQNTRARERK [G37L], the abundance fitness was -0.71 ± 0.073.
In the case of RLRTTITPEQLEILYEKYLLDSNPTRKMLDHIAREVMLKKRVVQVWFQNTRARERK [G37M], the abundance fitness is -0.465 ± 0.056.
Under RLRTTITPEQLEILYEKYLLDSNPTRKMLDHIAREVVLKKRVVQVWFQNTRARERK [G37V] stands -0.643 ± 0.072; under RLRTTITPEQLEILYEKYLLDSNPTRKMLDHIAREVDLKKRVVQVWFQNTRARERK [G37D], -0.065 ± 0.094.
For the variant RLRTTITPEQLEILYEKYLLDSNPTRKMLDHIAREVNLKKRVVQVWFQNTRARERK [G37N], the abundance fitness was 0.107 ± 0.14.
Take RLRTTITPEQLEILYEKYLLDSNPTRKMLDHIAREVWLKKRVVQVWFQNTRARERK [G37W]: the abundance fitness was -1.1 ± 0.28.
For the variant RLRTTITPEQLEILYEKYLLDSNPTRKMLDHIAREVSLKKRVVQVWFQNTRARERK [G37S], the abundance fitness was -0.359 ± 0.082.
Regarding RLRTTITPEQLEILYEKYLLDSNPTRKMLDHIAREVGLKKRRVQVWFQNTRARERK [V42R], the abundance fitness is -0.413 ± 0.068.
Take RLRTTITPEQLEILYEKYLLDSNPTRKMLDHIAREVGLKKRHVQVWFQNTRARERK [V42H]: the abundance fitness is -0.079 ± 0.13.
Under RLRTTITPEQLEILYEKYLLDSNPTRKMLDHIAREVGLKKREVQVWFQNTRARERK [V42E] stands 0.273 ± 0.093; under RLRTTITPEQLEILYEKYLLDSNPTRKMLDHIAREVGLKKRAVQVWFQNTRARERK [V42A], -0.197 ± 0.097; under RLRTTITPEQLEILYEKYLLDSNPTRKMLDHIAREVGLKKRCVQVWFQNTRARERK [V42C], -0.179 ± 0.093.
RLRTTITPEQLEILYEKYLLDSNPTRKMLDHIAREVGLKKRKVQVWFQNTRARERK [V42K]: the abundance fitness was -0.302 ± 0.07.
Consider RLRTTITPEQLEILYEKYLLDSNPTRKMLDHIAREVGLKKRMVQVWFQNTRARERK [V42M], for which the abundance fitness is -0.103 ± 0.077.
In the case of RLRTTITPEQLEILYEKYLLDSNPTRKMLDHIAREVGLKKRSVQVWFQNTRARERK [V42S], the abundance fitness is -0.348 ± 0.059.
For the variant RLRTTITPEQLEILYEKYLLDSNPTRKMLDHIAREVGLKKRLVQVWFQNTRARERK [V42L], the abundance fitness is -0.126 ± 0.083.
For RLRTTITPEQLEILYEKYLLDSNPTRKMLDHIAREVGLKKRYVQVWFQNTRARERK [V42Y], the abundance fitness was -0.598 ± 0.22.
RLRTTITPEQLEILYEKYLLDSNPTRKMLDHIAREVGLKKRQVQVWFQNTRARERK [V42Q]: the abundance fitness is -0.038 ± 0.15.
As for RLRTTITPEQLEILYEKYLLDSNPTRKMLDHIAREVGLKKRDVQVWFQNTRARERK [V42D], the abundance fitness came out at 0.23 ± 0.066.
For RLRTTITPEQLEILYEKYLLDSNPTRKMLDHIAREVGLKKRGVQVWFQNTRARERK [V42G], the abundance fitness was -0.533 ± 0.067.
In the case of RLRTTITPEQLEILYEKYLLDSNPTRKMLDHIAREVGLKKRTVQVWFQNTRARERK [V42T], the abundance fitness is -0.187 ± 0.12.
Regarding RLRTTITPEQLEILYEKYLLDSNPTRKMLDHIAREVGTKKRVVQVWFQNTRARERK [L38T], the abundance fitness is -0.933 ± 0.27.
As for RLRTTITPEQLEILYEKYLLDSNPTRKMLDHIAREVGWKKRVVQVWFQNTRARERK [L38W], the abundance fitness was -0.884 ± 0.17.
